Numbered stars: 1 amine (or outer) side, 2 acyl side, 3 side chain; on linkers, the order of the positions; unused ones are H or OH. Square brackets hold non-standard residues; d marks the D form. Ends that are not written are not given here. Peptide text beside a SMILES is read from it. * marks the point of attachment. BAT = N6,N9-bis(2-methyl-2-mercaptopropyl)-6,9-diazanonanoic acid (chelator), CC(C)(S)CNCCN(CCCCC(=O)*)CC(C)(C)S; C(Acm) = CC(=O)NCSC[C@H](N[*:1])C(=O)[*:2]; X1 = CC(C)(S)CNCCN(CCCCC(=O)*)CC(C)(C)S; pGlu = O=C1CC[C@@H](C(=O)O)N1; Picolinoyl = O=C(c1ccccn1)*; Acm = CC(=O)NC*; For = O=C*
Assays:
in vivo = assay: in vivo; design: species or system New Zealand white rabbits; settings: rabbit, iv
Protocol: (§1) After 24 h, the animals were sedated by i.m. injection of ketamine and xylazine, and then injected i.v. with Tc-99m labeled peptide (≤150 μg, 2-10 mCi). The animals were positioned supine in the field of view of a gamma camera (LEAP colimator/photopeaked for Tc-99m) and imaged over the first hour post-injection, and then at approximately 1 h intervals over the next three hours post injection. Animals were allowed to recover between image acquisitions and re-anesthetized as needed.
(§2) Upon completion of the final imaging, each animal was sacrificed by overdose of phenobarbital i.v. and dissected to obtain samples of blood and of infected and control muscle tissue. The tissue samples were weighed, and along with a standard amount of the injected dose, were counted using a gamma counter, and the percent injected dose (per gram of tissue) remaining in the tissues was determined. Ratios of percent of injected dose per gram of infected versus non-infected muscle tissue, and of infected muscle tissue versus blood, were calculated for each peptide. Scintiphotos of whole body and leg images of a rabbit injected with a Tc-99m labeled reagent of the invention, having the formula

infected muscle tissue = assay: in vivo; design: species or system New Zealand white rabbits; settings: rabbit; for Blood (% ID/g) / Control Muscle (% ID/g): iv
Protocol: as §1, §2

[1] = New Zealand white, total radioactivity, Blood (% ID/g)
[2] = New Zealand white, total radioactivity, Control Muscle (% ID/g)

Compound	tissue uptake (in vivo; Blood (% ID/g)) [%ID/g]	tissue uptake (in vivo; Control Muscle (% ID/g)) [%ID/g]	Ratio of Infected/Blood (infected muscle tissue)	Ratio of Infected/Control (infected muscle tissue)	tissue uptake (in vivo; [1]) [%ID/g]	tissue uptake (in vivo; [2]) [%ID/g]	Blood (% ID/g) (infected muscle tissue)	Control Muscle (% ID/g) (infected muscle tissue)
CSCC[C@H](NC=O)C(=O)N[C@@H](CC(C)C)C(=O)N[C@@H](Cc1ccccc1)C(=O)N[C@@H](CCCCNC(=O)CCCCN(CCNCC(C)(C)S)CC(C)(C)S)C(N)=O (99mTc complex, metal not drawn) [formyl.MLFK.[BAT]amide, formyl.MLFK.[BAT].amide] (For-MLFK(X1)-NH2)	0.006	0.0028	3.58	7.68				
CCCC(CCC)(NC(=O)[C@H](CCSC)NC=O)C(=O)N[C@@H](Cc1ccccc1)C(=O)NCCCCCN(CCNCC(C)(C)S)CC(C)(C)S [formyl.M.Dpg.F.[BAM], formyl.M.DpgF.[BAM]]			3.53	15.14	0.003	0.0007		
CC(C)C[C@H](NC(=O)C1(NC=O)CCSCC1)C(=O)N[C@@H](Cc1ccccc1)C(=O)NCCCCCN(CCNCC(C)(C)S)CC(C)(C)S [formyl.Thp.LF.[BAM]]			0.83	4.80	0.006	0.001		
(acetyl.CCAcm GCAcm PLYKKIIKKLLES)2.BSME ({Ac-Cys-C(Acm)-Gly-C(Acm)}-PLYKKIIKKLLES; also: dimer via BSME, Tc-99m label) [(Ac.CCAcm GCAcm PLYKKIIKKLLES)2 BSME]			0.84	7.45			0.010	0.0011
CAcm GCAcm (VGVAPG)3 amide (C(Acm)GC(Acm)VGVAPGVGVAPGVGVAPG-NH2; also: Tc-99m label)			1.69	3.94			0.011	0.0017
CAcm GCAcm TKPR (C(Acm)GC(Acm)TKPR; also: Tc-99m label)			2.07	2.40			0.003	0.0025
Pic.GC(VGVAPG)3 amide (Picolinoyl-GCVGVAPGVGVAPGVGVAPG-NH2; numbers in words are those of the source; also: Tc-99m label) [PicGC(VGVAPG)3 amide]			0.69	5.58			0.015	0.0019
[BAT].(VPGVG)4 amide ({BAT}-VPGVGVPGVGVPGVGVPGVG-NH2; also: Tc-99m label)			1.68	5.33			0.002	0.0006
[BAT].GGPLYKKIIKKLLES ({BAT}-GGPLYKKIIKKLLES; also: Tc-99m label)			0.50	7.00			0.004	0.0003
acetyl.CAcm GCAcm GGG(VPGVG)4 amide (Ac-C(Acm)GC(Acm)GGGVPGVGVPGVGVPGVGVPGVG-NH2; also: Tc-99m label) [Ac.CAcm GCAcm GGG(VPGVG)4 amide]			0.63	3.97			0.049	0.0077
acetyl.CGGGPLYKKIIKKLLES (Ac-CGGGPLYKKIIKKLLES) [Ac.CGGGPLYKKIIKKLLES]			0.74	4.70			0.032	0.0050
acetyl.KKKKKCAcm GCAcm GGPLYKKIIKKLLES (Ac-KKKKKC(Acm)GC(Acm)GGPLYKKIIKKLLES; also: Tc-99m label) [Ac.KKKKKCAcm GCAcm GGPLYKKIIKKLLES]			0.93	5.60			0.006	0.0019
pGlu.GVNDNEEGFFSARCAcm GCAcm amide ([pGlu]GVNDNEEGFFSARC(Acm)GC(Acm)-NH2; also: Tc-99m label)			0.68	5.68			0.024	0.0029

From patent US5989519A, “Technetium-99m labeled peptides for imaging inflammation” (Diatide, Inc., priority 1994, dated 1999)
